Source: the supplement of paper PMC9112550, “Optimization of the antimicrobial peptide Bac7 by deep mutational scanning” (BMC Biology, 2022)

What follows are sequences tested on Escherichia coli TOP10 (assay: shrunken log2 fold change of peptide-encoding DNA abundance (4.5 h post-induction vs induction); higher = less antimicrobial activity (less host growth inhibition)). Details: time post-induction: 4.5 h; library: site-saturation at positions 5, 18, 19, 20.
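Note: peptides expressed intracellularly from a pBAD plasmid library in pooled LB shake-flask culture, induced with 0.3% L-arabinose, DNA abundance read by NGS, three biological replicates, DESeq2 with apeglm shrinkage.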

| Sequence | shrunken log2 fold change |
| --- | --- |
| RRIRIRPPRLPRPRPRPGHVPRP | -0.0457 |
| RRIRCRPPRLPRPRPRPCFDPRP | -0.526 |
| RRIRSRPPRLPRPRPRPVWMPRP | 0.396 |
| RRIRFRPPRLPRPRPRPWQMPRP | 0.053 |
| RRIRNRPPRLPRPRPRPYCSPRP | -0.0619 |
| RRIRWRPPRLPRPRPRPVLWPRP | 0.809 |
| RRIRCRPPRLPRPRPRPCPSPRP | -0.0705 |
| RRIRYRPPRLPRPRPRPFNAPRP | -2.15 |
| RRIRPRPPRLPRPRPRPEYVPRP | -0.0441 |
| RRIRERPPRLPRPRPRPVSEPRP | 0.164 |
| RRIRPRPPRLPRPRPRPNVLPRP | -0.312 |
| RRIRYRPPRLPRPRPRPCMGPRP | -0.198 |
| RRIRARPPRLPRPRPRPAAPPRP | 0.99 |
| RRIRFRPPRLPRPRPRPSGNPRP | -0.24 |
| RRIRQRPPRLPRPRPRPGYAPRP | 0.0993 |
| RRIRKRPPRLPRPRPRPPASPRP | 0.424 |
| RRIRWRPPRLPRPRPRPHMQPRP | -0.0363 |
| RRIRVRPPRLPRPRPRPIWCPRP | 0.0502 |
| RRIRDRPPRLPRPRPRPDKMPRP | 0.0425 |
| RRIRVRPPRLPRPRPRPLKCPRP | -0.412 |
| RRIRFRPPRLPRPRPRPYARPRP | 0.0368 |
| RRIRGRPPRLPRPRPRPTIGPRP | 0.589 |
| RRIRFRPPRLPRPRPRPGPHPRP | 0.305 |
| RRIRRRPPRLPRPRPRPYRTPRP | -0.394 |
| RRIRYRPPRLPRPRPRPHNYPRP | -0.365 |

| Sequence | shrunken log2 fold change |
| --- | --- |
| RRIRVRPPRLPRPRPRPPFAPRP | 0.583 |
| RRIRERPPRLPRPRPRPQEAPRP | -0.018 |
| RRIRMRPPRLPRPRPRPQKNPRP | 0.628 |
| RRIRWRPPRLPRPRPRPPNGPRP | 0.034 |
| RRIRPRPPRLPRPRPRPHYYPRP | -0.439 |
| RRIRGRPPRLPRPRPRPMFDPRP | 0.662 |
| RRIRPRPPRLPRPRPRPKQLPRP | 0.0245 |
| RRIRTRPPRLPRPRPRPALVPRP | 0.0324 |
| RRIRIRPPRLPRPRPRPAAPPRP | 0.47 |
| RRIRWRPPRLPRPRPRPYYDPRP | -0.262 |
| RRIRHRPPRLPRPRPRPRGAPRP | 0.152 |
| RRIRHRPPRLPRPRPRPTYPPRP | 0.0921 |
| RRIRTRPPRLPRPRPRPIPIPRP | -0.0307 |
| RRIRLRPPRLPRPRPRPQTIPRP | -0.234 |
| RRIRYRPPRLPRPRPRPAEGPRP | -0.169 |
| RRIRKRPPRLPRPRPRPMIGPRP | 0.0437 |
| RRIRHRPPRLPRPRPRPTNYPRP | -0.2 |
| RRIRARPPRLPRPRPRPYTLPRP | -0.213 |
| RRIRQRPPRLPRPRPRPYFEPRP | -0.524 |
| RRIRGRPPRLPRPRPRPRKKPRP | 0.774 |
| RRIRMRPPRLPRPRPRPFQCPRP | -0.153 |
| RRIRGRPPRLPRPRPRPMGMPRP | 0.886 |
| RRIRDRPPRLPRPRPRPIPRPRP | -0.187 |
| RRIRARPPRLPRPRPRPRQQPRP | 0.277 |
| RRIRARPPRLPRPRPRPGEKPRP | 0.333 |

| Sequence | shrunken log2 fold change |
| --- | --- |
| RRIRERPPRLPRPRPRPRTLPRP | -0.17 |
| RRIRERPPRLPRPRPRPFWSPRP | -0.109 |
| RRIRFRPPRLPRPRPRPPHHPRP | -0.0595 |
| RRIRNRPPRLPRPRPRPAIHPRP | 0.0529 |
| RRIRARPPRLPRPRPRPKHRPRP | 0.556 |
| RRIRMRPPRLPRPRPRPKMYPRP | 0.0587 |
| RRIRSRPPRLPRPRPRPHWIPRP | -0.279 |
| RRIRARPPRLPRPRPRPHENPRP | 0.127 |
| RRIRRRPPRLPRPRPRPSMQPRP | 0.404 |
| RRIRKRPPRLPRPRPRPIPTPRP | 0.397 |
| RRIRARPPRLPRPRPRPYLLPRP | -0.76 |
| RRIRGRPPRLPRPRPRPSANPRP | 0.858 |
| RRIRPRPPRLPRPRPRPLEAPRP | 0.249 |
| RRIRIRPPRLPRPRPRPTTKPRP | -0.664 |
| RRIRMRPPRLPRPRPRPVIRPRP | 0.00204 |
| RRIRMRPPRLPRPRPRPVRTPRP | 0.673 |
| RRIRQRPPRLPRPRPRPCSCPRP | 0.0297 |
| RRIRARPPRLPRPRPRPTWYPRP | -0.00985 |
| RRIRIRPPRLPRPRPRPWSMPRP | -0.00809 |
| RRIRLRPPRLPRPRPRPTTMPRP | -0.439 |
| RRIRHRPPRLPRPRPRPLLCPRP | -0.223 |
| RRIRSRPPRLPRPRPRPTPCPRP | 0.254 |
| RRIRPRPPRLPRPRPRPDNNPRP | -0.512 |
| RRIRSRPPRLPRPRPRPTGVPRP | 0.0241 |
| RRIRGRPPRLPRPRPRPPGTPRP | 0.982 |

| Sequence | shrunken log2 fold change |
| --- | --- |
| RRIRARPPRLPRPRPRPHEWPRP | 0.311 |
| RRIRGRPPRLPRPRPRPIDKPRP | 1.2 |
| RRIRRRPPRLPRPRPRPHDGPRP | -0.0863 |
| RRIRDRPPRLPRPRPRPAPHPRP | 0.852 |
| RRIRKRPPRLPRPRPRPCNIPRP | -0.697 |
| RRIRERPPRLPRPRPRPAGFPRP | 0.67 |
| RRIRFRPPRLPRPRPRPQHCPRP | -0.461 |
| RRIRNRPPRLPRPRPRPAAHPRP | -0.00675 |
| RRIRMRPPRLPRPRPRPAVGPRP | 0.5 |
| RRIRQRPPRLPRPRPRPFCAPRP | 0.184 |
| RRIRTRPPRLPRPRPRPYKWPRP | -0.0875 |
| RRIRYRPPRLPRPRPRPGSQPRP | 0.0113 |
| RRIRRRPPRLPRPRPRPRMYPRP | -0.152 |
| RRIRTRPPRLPRPRPRPLNNPRP | -0.135 |
| RRIRPRPPRLPRPRPRPFPYPRP | -0.0798 |
| RRIRIRPPRLPRPRPRPYCAPRP | -0.978 |
| RRIRKRPPRLPRPRPRPNFNPRP | -0.0705 |
| RRIRGRPPRLPRPRPRPPEAPRP | 1.33 |
| RRIRWRPPRLPRPRPRPIGGPRP | -0.0334 |
| RRIRWRPPRLPRPRPRPRNNPRP | -0.162 |
| RRIRERPPRLPRPRPRPMFFPRP | -0.0867 |
| RRIRQRPPRLPRPRPRPINKPRP | -0.318 |
| RRIRFRPPRLPRPRPRPPDIPRP | -0.329 |
| RRIRSRPPRLPRPRPRPNYNPRP | -0.904 |
| RRIRWRPPRLPRPRPRPGANPRP | 0.0566 |

| Sequence | shrunken log2 fold change |
| --- | --- |
| RRIRERPPRLPRPRPRPPLVPRP | -0.0197 |
| RRIRARPPRLPRPRPRPLRGPRP | 0.954 |
| RRIRTRPPRLPRPRPRPRWLPRP | 0.369 |
| RRIRRRPPRLPRPRPRPSESPRP | 0.0539 |
| RRIRIRPPRLPRPRPRPQMHPRP | -0.494 |
| RRIRIRPPRLPRPRPRPVYRPRP | 0.00778 |
| RRIRGRPPRLPRPRPRPIHCPRP | -0.0922 |
| RRIRNRPPRLPRPRPRPWIWPRP | -0.151 |
| RRIRRRPPRLPRPRPRPTAQPRP | 0.244 |
| RRIRERPPRLPRPRPRPSLFPRP | -0.44 |
| RRIRMRPPRLPRPRPRPWPVPRP | 0.287 |
| RRIRNRPPRLPRPRPRPNKCPRP | -0.466 |
| RRIRNRPPRLPRPRPRPFDMPRP | -0.0725 |
| RRIRKRPPRLPRPRPRPEATPRP | 3.17 |
| RRIRWRPPRLPRPRPRPTHSPRP | 0.331 |
| RRIRFRPPRLPRPRPRPKCYPRP | -0.233 |
| RRIRMRPPRLPRPRPRPRIYPRP | -0.0363 |
| RRIRMRPPRLPRPRPRPEQQPRP | -0.0233 |
| RRIRHRPPRLPRPRPRPGLEPRP | 0.00016 |
| RRIRRRPPRLPRPRPRPCIAPRP | -0.247 |
| RRIRIRPPRLPRPRPRPEFKPRP | 0.387 |
| RRIRVRPPRLPRPRPRPEQSPRP | 0.362 |
| RRIRPRPPRLPRPRPRPGQCPRP | -0.0386 |
| RRIRHRPPRLPRPRPRPHTLPRP | -0.247 |
| RRIRFRPPRLPRPRPRPNCTPRP | 0.0099 |
